The term Kd denotes a measure of binding affinity in units of concentration. The low end stands for higher affinity, the high end for lower affinity.

The results in this text go back to patent US10766960 (dated 2020).

Holding throughout (experiment): SPR
On the technique in general: Surface plasmon resonance follows binding to a sensor surface in real time, without labels.

For one assay, the target named is FcgRIIIa V (human, UniProt P08637).
The target in the next assay is T1, FcgRIIa H (human, UniProt P12318).
T1 chain: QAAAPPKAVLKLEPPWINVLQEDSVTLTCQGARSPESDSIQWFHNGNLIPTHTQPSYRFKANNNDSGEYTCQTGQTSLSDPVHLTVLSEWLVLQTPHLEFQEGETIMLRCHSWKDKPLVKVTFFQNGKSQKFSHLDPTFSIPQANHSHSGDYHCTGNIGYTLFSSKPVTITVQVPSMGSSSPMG

Assay [1] addresses T2, FcgRIIb (human, UniProt P31994).
T2 chain: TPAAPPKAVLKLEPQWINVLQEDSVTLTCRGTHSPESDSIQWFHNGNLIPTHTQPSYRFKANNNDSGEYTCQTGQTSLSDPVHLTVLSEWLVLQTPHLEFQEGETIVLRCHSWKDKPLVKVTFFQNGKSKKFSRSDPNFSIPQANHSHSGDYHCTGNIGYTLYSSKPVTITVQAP

The next assay has as its target T3, FcgRIIa R (human, UniProt P12318).
T3 chain: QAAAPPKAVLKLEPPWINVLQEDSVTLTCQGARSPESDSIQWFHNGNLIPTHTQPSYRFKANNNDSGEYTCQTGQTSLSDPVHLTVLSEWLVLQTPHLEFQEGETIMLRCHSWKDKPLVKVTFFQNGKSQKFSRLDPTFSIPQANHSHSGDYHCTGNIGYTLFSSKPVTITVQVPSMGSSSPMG

The target in assay [2] is T4, FcgRIIIa F (human, UniProt P08637).
Another assay addresses T5, FcgRIa (human, UniProt P12314).
T5 chain: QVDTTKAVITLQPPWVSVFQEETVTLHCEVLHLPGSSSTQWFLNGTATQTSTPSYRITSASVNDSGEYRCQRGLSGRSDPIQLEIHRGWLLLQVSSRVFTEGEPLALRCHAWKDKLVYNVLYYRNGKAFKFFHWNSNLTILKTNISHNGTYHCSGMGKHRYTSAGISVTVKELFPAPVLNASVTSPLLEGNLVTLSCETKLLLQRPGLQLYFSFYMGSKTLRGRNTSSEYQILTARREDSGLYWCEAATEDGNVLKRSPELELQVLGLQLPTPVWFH

Assay [3] addresses T2, FcgRIIb.
In assay [4] the target is T4, FcgRIIIa F. This is another data set of the same source.

Where two headings read alike, the source gives them in different places.

T4 sequence (P08637 17-208): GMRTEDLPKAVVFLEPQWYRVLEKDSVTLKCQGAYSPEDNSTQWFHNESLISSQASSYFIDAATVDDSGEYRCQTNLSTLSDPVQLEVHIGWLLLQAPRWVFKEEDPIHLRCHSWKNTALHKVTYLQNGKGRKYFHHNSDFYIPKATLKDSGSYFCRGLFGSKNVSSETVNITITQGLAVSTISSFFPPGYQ
Chain of FcgRIIIa V (P08637 17-208 F176V): as the sequence (P08637 17-208) above, with F160V counted along it

B1: H240-Kn120/H240-Hl073/L73-k0 (antibody)
chain 1: QDQLVQSGAEVKKPGASVKVSCKASGFNIKDTYIQWVRQAPGQGLEWMGRIDPLRKQTKYREKFEGRVTITADTSTNTAYMELSSLRSEDTAVYYCVRSGREFDYWGQGTLVTVSSASTKGPSVFPLAPSSKSTSGGTAALGCLVKDYFPEPVTVSWNSGALTSGVHTFPAVLQSSGLYSLSSVVTVPSSSLGTQTYICNVNHKPSNTKVDKKVEPKSCDKTHTCPPCPAPEYYWGPMVFLFPPKPKDTLMISRTPEVTCVVVDVSDEDPEVKFNWYVDGVEVHNAKTKPREEQYNATYRVVSVLTVLHQDWLNGKEYKCKVSNKDLPAPIEKTISKAKGQPREPQVCTLPPSRDELTKNQVSLWCLVKGFYPSDIAVEWESNGQPENNYKTTPPVLDSDGSFFLYSKLTVDKSRWQQGNVFSCSVMHEALHNHYTQKSLSLSP
chain 2: QDQLVQSGAEVKKPGASVKVSCKASGFNIKDTYIQWVRQAPGQGLEWMGRIDPLRKQTKYREKFEGRVTITADTSTNTAYMELSSLRSEDTAVYYCVRSGREFDYWGQGTLVTVSSASTKGPSVFPLAPSSKSTSGGTAALGCLVKDYFPEPVTVSWNSGALTSGVHTFPAVLQSSGLYSLSSVVTVPSSSLGTQTYICNVNHKPSNTKVDKKVEPKSCDKTHTCPPCPAPELLSGPSVFLFPPKPKDTLMISRTPEVTCVVVDVSHEEPEVKFNWYVDGVEVHNAKTKPREEQYNSTYRVVSVLTVLHQDWLNGKEYKCKVSNDALPKPIEETISKAKGQPREPQVYTLPPSRCELTKNQVSLSCAVKGFYPSDIAVEWESNGQPENNYKTTPPVLDSDGSFFLVSKLTVDKSRWQQGNVFSCSVMHEALHNHYTQKSLSLSP
chain 3: DIQMTQSPSSLSASVGDRVTITCRASQDIHKYIAWYQQKPGQAPRLLIQYTSTLQPGVPSRFSGSGSGTDYTFTISSLQPEDIATYYCLQYEQLRTFGGGTKVEIKRTVAAPSVFIFPPSDEQLKSGTASVVCLLNNFYPREAKVQWKVDNALQSGNSQESVTEQDSKDSTYSLSSTLTLSKADYEKHKVYACEVTHQGLSSPVTKSFNRGEC
As to B1, the Kd in the assay with FcgRIIIa V was 1.8 nM; with FcgRIIa H, 21 nM; with FcgRIIb [1] it was 210 nM; in the assay with FcgRIIa R, 15 nM; with FcgRIIIa F [2] it was 8.2 nM; in the assay with FcgRIa, below 0.028 nM.

B2: H240-Kn179/H240-Hl068/L73-k0 (antibody)
chain 1: QDQLVQSGAEVKKPGASVKVSCKASGFNIKDTYIQWVRQAPGQGLEWMGRIDPLRKQTKYREKFEGRVTITADTSTNTAYMELSSLRSEDTAVYYCVRSGREFDYWGQGTLVTVSSASTKGPSVFPLAPSSKSTSGGTAALGCLVKDYFPEPVTVSWNSGALTSGVHTFPAVLQSSGLYSLSSVVTVPSSSLGTQTYICNVNHKPSNTKVDKKVEPKSCDKTHTCPPCPAPEYYWGPMVFLFPPKPKDTLMISRTPEVTCVVVDVSDEDPEVKFNWYVDGVEVHNAKTKPREKQYNATYRVVSVLTVLHQDWLNGKEYKCKVSNKDLPAPIEKTISKAKGQPREPQVCTLPPSRDELTKNQVSLWCLVKGFYPSDIAVEWESNGQPENNYKTTPPVLDSDGSFFLYSKLTVDKSRWQQGNVFSCSVMHEALHNHYTQKSLSLSP
chain 2: QDQLVQSGAEVKKPGASVKVSCKASGFNIKDTYIQWVRQAPGQGLEWMGRIDPLRKQTKYREKFEGRVTITADTSTNTAYMELSSLRSEDTAVYYCVRSGREFDYWGQGTLVTVSSASTKGPSVFPLAPSSKSTSGGTAALGCLVKDYFPEPVTVSWNSGALTSGVHTFPAVLQSSGLYSLSSVVTVPSSSLGTQTYICNVNHKPSNTKVDKKVEPKSCDKTHTCPPCPAPELLGGPSVFLFPPKPKDTLMISRTPEVTCVVVDVSHEEPEVKFNWYVDGVEVHNAKTKPREEQYNSTYRVVSVLTVLHQDWLNGKEYKCKVSNDALPKPIEETISKAKGQPREPQVYTLPPSRCELTKNQVSLSCAVKGFYPSDIAVEWESNGQPENNYKTTPPVLDSDGSFFLVSKLTVDKSRWQQGNVFSCSVMHEALHNHYTQKSLSLSP
chain 3: DIQMTQSPSSLSASVGDRVTITCRASQDIHKYIAWYQQKPGQAPRLLIQYTSTLQPGVPSRFSGSGSGTDYTFTISSLQPEDIATYYCLQYEQLRTFGGGTKVEIKRTVAAPSVFIFPPSDEQLKSGTASVVCLLNNFYPREAKVQWKVDNALQSGNSQESVTEQDSKDSTYSLSSTLTLSKADYEKHKVYACEVTHQGLSSPVTKSFNRGEC
As to B2, the Kd with FcgRIIIa V is 0.98 nM; with FcgRIIa H, 41 nM; in the assay with FcgRIIb [1] it was 260 nM; with FcgRIIa R it was 26 nM; with FcgRIIIa F [2] it was 4.8 nM; with FcgRIa, 0.3 nM.

B3: GpH7-A5/GpH7-B78/GpL16-k0 (antibody)
chain 1: not shown
chain 2: QVQLVQSGAEVKKPGASVTVSCKASGYTFTDYEMHWIRQPPGEGLEWIGAIDPKTGDTAYSESFQDRVTLTADKSTSTAYMELSSLTSEDTAVYYCTRFYSYTYWGQGTLVTVSSASTKGPSVFPLAPSSKSTSGGTAALGCLVKDYFPEPVTVSWNSGALTSGVHTFPAVLQSSGLYSLSSVVTVPSSSLGTQTYICNVNHKPSNTKVDKKVEPKSCDKTHTCPPCPAPELLGGPDVFLFPPKPKDTLMISRTPEVTCVVVDVSHEDPEVKFNWYVDGVEVHNAKTKPREEQYNSTYRVVSVLTVLHQDWLNGKEYKCKVSNKALPLPEEKTISKAKGQPREPQVYTLPPSRDELTKNQVSLTCLVKGFYPSDIAVEWESNGQPENNYKTTPPVLDSDGSFFLYSKLTVDKSRWQQGNVFSCSVMHEALHNHYTQESLSLSP
chain 3: DIVMTQSPLSLPVTPGEPASISCQASESLVHSNRNTYLHWYLQKPGQSPQLLIYKVSNRFSGVPDRFSGSGSGTDFTLKISRVEAEDVGVYYCSQNTHVPPTFGQGTKVEIERTVAAPSVFIFPPSDEQLKSGTASVVCLLNNFYPREAKVQWKVDNALQSGNSQESVTEQDSKDSTYSLSSTLTLSKADYEKHKVYACEVTHQGLSSPVTKSFNRGEC
As for B3, the Kd was 430 nM with FcgRIIb [3] and 54 nM with FcgRIIIa F [4].

B4: GpH7-TA7/GpH7-TA45/GpL16-k0 (antibody)
chain 1: QVQLVQSGAEVKKPGASVTVSCKASGYTFTDYEMHWIRQPPGEGLEWIGAIDPKTGDTAYSESFQDRVTLTADKSTSTAYMELSSLTSEDTAVYYCTRFYSYTYWGQGTLVTVSSASTKGPSVFPLAPSSKSTSGGTAALGCLVKDYFPEPVTVSWNSGALTSGVHTFPAVLQSSGLYSLSSVVTVPSSSLGTQTYICNVNHKPSNTKVDKKVEPKSCDKTHTCPPCPAPEYLWGPSVFLFPPKPKDTLMISRTPEVTCVVVDVSHEDPEVKFNWYVDGVEVHNAKTKPREEQYNATYRVVSVLTVLHQDWLNGKEYKCKVSNKALPAPIEKTISKAKGQPREPQVYTLPPSRKELTKNQVSLTCLVKGFYPSDIAVEWESNGQPENNYKTTPPVLDSDGSFFLYSKLTVDKSRWQQGNVFSCSVMHEALHNRYTQKSLSLSP
chain 2: QVQLVQSGAEVKKPGASVTVSCKASGYTFTDYEMHWIRQPPGEGLEWIGAIDPKTGDTAYSESFQDRVTLTADKSTSTAYMELSSLTSEDTAVYYCTRFYSYTYWGQGTLVTVSSASTKGPSVFPLAPSSKSTSGGTAALGCLVKDYFPEPVTVSWNSGALTSGVHTFPAVLQSSGLYSLSSVVTVPSSSLGTQTYICNVNHKPSNTKVDKKVEPKSCDKTHTCPPCPAPEYLWGPSVFLFPPKPKDTLMISRTPEVTCVVVDVSHEDPEVKFNWYVDGVEVHNAKTKPREEQYNATYRVVSVLTVLHQDWLNGKEYKCKVSNKALPAPIEKTISKAKGQPREPQVYTLPPSRDELTKNQVSLTCLVKGFYPSDIAVEWESNGQPENNYKTTPPVLDSDGSFFLYSKLTVDKSRWQQGNVFSCSVMHEALHNHYTQESLSLSP
chain 3: DIVMTQSPLSLPVTPGEPASISCQASESLVHSNRNTYLHWYLQKPGQSPQLLIYKVSNRFSGVPDRFSGSGSGTDFTLKISRVEAEDVGVYYCSQNTHVPPTFGQGTKVEIERTVAAPSVFIFPPSDEQLKSGTASVVCLLNNFYPREAKVQWKVDNALQSGNSQESVTEQDSKDSTYSLSSTLTLSKADYEKHKVYACEVTHQGLSSPVTKSFNRGEC
As for B4, the results for the Kd in the assay with FcgRIIb [3] and with FcgRIIIa F [4] were 18000 nM and 3300 nM, respectively.

B5: GpH7-A5/GpH7-B3/GpL16-k0 (antibody)
chain 1: not shown
chain 2: not shown
chain 3: DIVMTQSPLSLPVTPGEPASISCQASESLVHSNRNTYLHWYLQKPGQSPQLLIYKVSNRFSGVPDRFSGSGSGTDFTLKISRVEAEDVGVYYCSQNTHVPPTFGQGTKVEIERTVAAPSVFIFPPSDEQLKSGTASVVCLLNNFYPREAKVQWKVDNALQSGNSQESVTEQDSKDSTYSLSSTLTLSKADYEKHKVYACEVTHQGLSSPVTKSFNRGEC
With B5, the values for the Kd with FcgRIIb [3] and with FcgRIIIa F [4] were 3100 nM and 1600 nM, respectively.

B6: GpH7-G1d/GpL16-k0 (antibody)
chain 1: not shown
chain 2: DIVMTQSPLSLPVTPGEPASISCQASESLVHSNRNTYLHWYLQKPGQSPQLLIYKVSNRFSGVPDRFSGSGSGTDFTLKISRVEAEDVGVYYCSQNTHVPPTFGQGTKVEIERTVAAPSVFIFPPSDEQLKSGTASVVCLLNNFYPREAKVQWKVDNALQSGNSQESVTEQDSKDSTYSLSSTLTLSKADYEKHKVYACEVTHQGLSSPVTKSFNRGEC
With B6, the Kd is 3100 nM with FcgRIIb [3] and 1200 nM in the assay with FcgRIIIa F [4].
